In article doi:10.1101/298455 (bioRxiv, 2018):

Molecular target: human eIF4E (human, UniProt P06730 1-217)
Assay: ELISA

Sequence of human eIF4E (P06730 whole entry): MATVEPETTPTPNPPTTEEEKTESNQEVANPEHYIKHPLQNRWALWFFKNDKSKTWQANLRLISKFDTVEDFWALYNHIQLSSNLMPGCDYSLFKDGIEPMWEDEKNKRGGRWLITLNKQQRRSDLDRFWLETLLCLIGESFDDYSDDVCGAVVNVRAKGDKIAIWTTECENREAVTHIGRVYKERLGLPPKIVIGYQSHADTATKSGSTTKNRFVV

B1: GST-VPg5 fusion protein (peptide)
chain: RKKGKGKGTTVGMGKSSRRFINMYGF
B1: binds.
